Experiments:
[1] = biological target: T1, mouse transferrin receptor (mTfR) fused to EGFP, on CHO cells (mouse, UniProt Q62351 1-763); assay: flow cytometry, CHO cells
T1 construct: whole, on cells; also called mouse TfR; CHO-mTfR-EGFP; not shown: EGFP
Protocol: The binding properties of VHHs with affinity for the TfR from different species (i.e., human (h), mouse (m) and rhesus monkey (rh)) were tested using flow cytometry, and apparent affinities (Kd app) were determined. All experiments were performed in 96 well plates using 2×10⁵ cells/well, at 4° C. with shaking. CHO cell lines expressing the hTfR, mTfR or rhTfR fused to EGFP were saturated with PBS/BSA 2% solution during 30 min to avoid nonspecific binding, followed by incubation with purified VHHs at increasing concentrations for 1 hr. After one wash in PBS/BSA 2%, cells were incubated for 1 hr with an anti-6His tag antibody (mouse), washed twice with PBS/BSA 2%, and incubated for 1 hr with an Alexa647-conjugated anti-mouse secondary antibody. After two last washes in PBS/BSA 2%, cells were fixed by incubation for 15 min with PBS/PFA 2%, washed once with PBS and finally resuspended in PBS. Fluorescence levels were assessed using an Attune NxT flow cytometer (Thermo Fisher Scientific). Experimental data were fitted with GraphPad Prism® software using a nonlinear fit to determine the apparent Kd constants. […] Table 5 hereafter summarizes apparent Kd obtained for the tested VHHs.

[2] = biological target: T2, rhesus monkey transferrin receptor (rhTfR) fused to EGFP, on CHO cells (rhesus monkey); assay: apparent Kd, flow cytometry, CHO cells
T2 construct: whole, on cells; also called rhesus monkey TfR
In short: (§1)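 CHO cells expressing TfR-EGFP fusions, blocked in PBS/BSA 2%, then incubated with increasing VHH concentrations for 1 hr at 4° C. Bound VHH detected via anti-6His antibody and Alexa647 secondary, cells PFA-fixed, read by flow cytometry. Apparent Kd from nonlinear fit.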

[3] = biological target: T3, human transferrin receptor (hTfR) fused to EGFP, on CHO cells (human, UniProt P02786 1-760); assay: apparent Kd, flow cytometry, CHO cells
T3 construct: whole, on cells; also called human TfR; CHO-hTfR-EGFP; not shown: EGFP from pEGFP-C1 vector, fused to the N-terminal (intracellular) end of hTfR
T3 sequence (P02786 whole entry, the tested form may be a part): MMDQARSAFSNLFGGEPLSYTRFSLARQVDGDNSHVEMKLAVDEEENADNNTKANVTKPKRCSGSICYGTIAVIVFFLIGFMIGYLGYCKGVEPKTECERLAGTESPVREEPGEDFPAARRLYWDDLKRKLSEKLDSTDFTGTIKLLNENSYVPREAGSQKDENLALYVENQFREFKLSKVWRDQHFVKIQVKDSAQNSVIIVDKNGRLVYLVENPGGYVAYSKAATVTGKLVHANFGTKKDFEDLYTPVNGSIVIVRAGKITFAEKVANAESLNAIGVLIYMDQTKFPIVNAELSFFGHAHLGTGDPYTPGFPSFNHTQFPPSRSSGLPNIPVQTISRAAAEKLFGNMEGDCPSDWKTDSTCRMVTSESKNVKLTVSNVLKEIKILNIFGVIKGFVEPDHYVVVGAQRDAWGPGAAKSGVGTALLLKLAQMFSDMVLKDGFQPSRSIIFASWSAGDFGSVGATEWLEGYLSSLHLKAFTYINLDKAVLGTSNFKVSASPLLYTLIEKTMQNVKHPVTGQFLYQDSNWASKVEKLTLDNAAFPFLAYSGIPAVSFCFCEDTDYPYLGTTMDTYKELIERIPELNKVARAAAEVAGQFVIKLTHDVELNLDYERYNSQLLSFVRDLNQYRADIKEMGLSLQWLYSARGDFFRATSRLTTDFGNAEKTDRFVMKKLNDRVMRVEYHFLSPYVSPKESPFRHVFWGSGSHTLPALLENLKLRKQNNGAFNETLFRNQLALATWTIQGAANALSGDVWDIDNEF
In short: as §1

[4] = biological target: T4, rhesus monkey TfR ectodomain fused to a mouse IgG1 Fc fragment (rhesus monkey, UniProt I0FKY7 89-760); assay: SPR, kinetic
T4 construct: extracellular domain; not shown: mouse IgG1 Fc fragment
In short: (§2)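 TfR–mouse Fc fusions, produced in-house, captured on HC 1500M or CM5 chips either directly or via immobilized anti-mouse IgG. VHHs injected in single-cycle or multiple-cycle kinetic mode on Biacore T200.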

[5] = biological target: T5, human TfR ectodomain fused to a mouse IgG1 Fc fragment (human, UniProt P02786 89-760); assay: SPR, kinetic
T5 construct: extracellular domain; ectodomain fused to the N-terminal end of the Fc, made in-house; not shown: mouse IgG1 Fc fragment
T5 sequence (P02786 89-760): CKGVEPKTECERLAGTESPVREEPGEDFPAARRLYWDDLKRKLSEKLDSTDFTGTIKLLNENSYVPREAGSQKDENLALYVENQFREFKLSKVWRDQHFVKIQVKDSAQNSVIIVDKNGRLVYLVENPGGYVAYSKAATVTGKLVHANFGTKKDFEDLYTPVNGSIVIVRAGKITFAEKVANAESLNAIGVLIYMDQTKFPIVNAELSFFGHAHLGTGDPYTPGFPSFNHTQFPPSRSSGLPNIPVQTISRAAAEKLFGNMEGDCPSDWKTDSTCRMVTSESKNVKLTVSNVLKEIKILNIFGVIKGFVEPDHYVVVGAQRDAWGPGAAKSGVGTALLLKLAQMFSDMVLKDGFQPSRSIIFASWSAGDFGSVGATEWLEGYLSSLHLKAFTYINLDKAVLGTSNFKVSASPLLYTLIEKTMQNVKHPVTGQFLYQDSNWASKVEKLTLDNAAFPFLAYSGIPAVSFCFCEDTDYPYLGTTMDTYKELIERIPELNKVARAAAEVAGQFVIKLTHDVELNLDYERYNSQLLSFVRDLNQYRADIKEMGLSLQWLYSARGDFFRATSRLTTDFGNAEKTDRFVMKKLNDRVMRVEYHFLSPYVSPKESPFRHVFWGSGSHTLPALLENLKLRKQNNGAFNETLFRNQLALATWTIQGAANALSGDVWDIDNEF
In short: as §2

[6] = biological target: T4, rhesus monkey TfR ectodomain fused to a …; assay: SPR, at equilibrium
Protocol: (§3) Binding properties of some VHHs were also evaluated using Surface Plasmon Resonance (SPR) experiments. The human, mouse and rhesus monkey TfR (having respectively GeneBank number NM_003234.2, NM_011638, NC_041755.1) ectodomains were fused to the N-terminal end of a mouse IgG1 Fc fragment and the recombinant proteins were produced and purified in-house. Interaction of VHHs with the receptors was tested using a Biacore T200 (GE Healthcare). Receptors were immobilized on an HC 1500M or a CM5 sensor chip (Xantec) either directly or on an anti-mouse IgG previously immobilized. VHHs were injected over flowcell by using the single-cycle kinetic or the multiple-cycle kinetic methods.

[7] = biological target: T5, human TfR ectodomain fused to a mouse …; assay: SPR, at equilibrium
Protocol: as §3

[8] = biological target: T1, mouse transferrin receptor (mTfR) fused …; assay: apparent Kd, flow cytometry, CHO cells
In short: as §1

[9] = biological target: T6, mouse TfR ectodomain fused to a mouse IgG1 Fc fragment (mouse, UniProt Q62351 89-763); assay: SPR, kinetic
T6 construct: extracellular domain; not shown: mouse IgG1 Fc fragment
T6 sequence (Q62351 89-763): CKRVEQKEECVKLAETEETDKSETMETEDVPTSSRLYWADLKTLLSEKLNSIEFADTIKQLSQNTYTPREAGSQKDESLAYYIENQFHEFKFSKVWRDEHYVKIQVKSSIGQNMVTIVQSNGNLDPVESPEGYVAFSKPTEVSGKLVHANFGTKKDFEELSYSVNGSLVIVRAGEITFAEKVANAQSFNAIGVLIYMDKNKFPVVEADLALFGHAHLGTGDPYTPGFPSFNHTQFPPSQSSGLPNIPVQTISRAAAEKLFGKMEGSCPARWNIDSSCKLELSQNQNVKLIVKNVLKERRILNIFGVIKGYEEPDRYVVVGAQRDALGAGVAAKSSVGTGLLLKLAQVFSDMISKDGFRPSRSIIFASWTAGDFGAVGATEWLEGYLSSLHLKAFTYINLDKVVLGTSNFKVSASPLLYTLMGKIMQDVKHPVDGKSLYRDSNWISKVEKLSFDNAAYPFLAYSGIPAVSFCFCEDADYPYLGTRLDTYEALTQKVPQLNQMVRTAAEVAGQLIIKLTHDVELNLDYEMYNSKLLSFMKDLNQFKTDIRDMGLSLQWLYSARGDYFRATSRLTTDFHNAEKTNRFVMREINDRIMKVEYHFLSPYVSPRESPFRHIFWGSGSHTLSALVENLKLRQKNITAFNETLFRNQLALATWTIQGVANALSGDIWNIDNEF
In short: as §2

[10] = biological target: T6, mouse TfR ectodomain fused to a mouse …; assay: SPR, at equilibrium
Protocol: as §3

[11] = biological target: T7, murine TfR expressed by murine neuroblastoma Neuro-2a cells (mouse, UniProt Q62351 1-763); assay: competition with the fluorescent reference VHH on Neuro-2a cells as in FIG. 25; Ki/app on mTfR
T7 construct: whole, on cells; also called mTfR (N2a cells)
T7 sequence (Q62351 whole entry): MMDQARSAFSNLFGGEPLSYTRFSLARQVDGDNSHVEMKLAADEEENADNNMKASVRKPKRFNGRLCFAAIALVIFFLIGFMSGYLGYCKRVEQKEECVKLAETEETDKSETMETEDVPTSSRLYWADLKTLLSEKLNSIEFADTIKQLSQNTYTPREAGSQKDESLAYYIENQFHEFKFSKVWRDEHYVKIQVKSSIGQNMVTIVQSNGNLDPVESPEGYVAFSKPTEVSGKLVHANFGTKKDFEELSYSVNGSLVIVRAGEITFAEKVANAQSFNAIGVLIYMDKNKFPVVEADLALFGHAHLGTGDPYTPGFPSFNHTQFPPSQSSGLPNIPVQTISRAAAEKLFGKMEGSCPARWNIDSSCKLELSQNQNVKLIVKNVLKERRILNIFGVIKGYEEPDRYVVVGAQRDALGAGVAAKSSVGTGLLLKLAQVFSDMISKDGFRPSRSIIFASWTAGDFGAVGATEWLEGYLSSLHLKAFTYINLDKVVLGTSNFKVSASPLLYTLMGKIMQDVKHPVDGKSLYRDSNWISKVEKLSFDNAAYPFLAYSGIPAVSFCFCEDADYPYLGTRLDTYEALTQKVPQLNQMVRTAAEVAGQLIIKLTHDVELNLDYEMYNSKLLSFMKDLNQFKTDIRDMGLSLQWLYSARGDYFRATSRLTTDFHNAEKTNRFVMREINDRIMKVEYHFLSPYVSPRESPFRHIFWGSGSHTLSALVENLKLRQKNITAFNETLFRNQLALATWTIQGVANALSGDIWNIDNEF
Protocol: The binding of VHH-Oligo and VHH-hFc-Oligo conjugates to mTfR was evaluated using a competition assay on living cells expressing the receptor of interest, namely murine neuroblastoma Neuro-2a cells (N2a). N2a cells were grown in Dulbecco's Modified Eagle Medium (DMEM) GlutaMAX supplemented with 10% v/v FBS in 5% CO₂ at 37° C. Cells were seeded two days before experiments in 96-well plates at a density of 50.000 cells/well. […] Resuspended cells were transferred in a 96-deepwell plate (V-bottom) containing 1% fetal bovine serum (FBS)/0.02% sodium azide in phosphate-buffered saline (PBS) and then centrifuged for 5 min at 2000 rpm at 4° C. After removing the supernatant, 5 mM EDTA in D-PBS and 4% paraformaldehyde (PFA) (v/v 1:1) were added into wells to fix cells for 15 min at room temperature. PFA was removed by centrifugation (5 min, 3000 rpm, 4° C.) and cells were resuspended with 5 mM EDTA in D-PBS. Then the cellular A680-associated fluorescence signal was quantified using an Attune™ NxT flow cytometer (Thermo Fisher Scientific) equipped with Attune™ NxT v3.1.2. Experimental data (experimental triplicates) were fitted with GraphPad Prism® software using a nonlinear fit to determine the apparent Ki inhibition constants.

T1 sequence (Q62351 whole entry, the tested form may be a part): as the sequence (Q62351 whole entry) above

Row | Binder | binding result [1] | Kd [2] [nM] | Kd [3] [nM] | Kd [4] [nM] | koff [4] [s⁻¹] | kon [4] [M⁻¹ s⁻¹] | Kd [5] [nM] | koff [5] [s⁻¹] | kon [5] [M⁻¹ s⁻¹] | Kd [6] [nM] | Kd [7] [nM] | Kd [8] [nM] | Kd [9] [nM] | koff [9] [s⁻¹] | kon [9] [M⁻¹ s⁻¹] | Kd [10] [nM] | Ki [11] [nM]
1 | C10a (VHH) VHH: EVQLVESGGGLVQAGDSLRLSCAASGFASHLYAIGWFRQAPGKEREKVSCISSNDGSTYYADSVKGRFTISRDTVKDMVYLQMNSLKPEDTAVYYCATDLTVHCFMAEYDWWGQGTQVTVSS | no binding | 3.2 | 4.1 | 24.6 | 0.0178 | 903000 | 44.6 | 0.00726 | 188000 | 38.1 | 86.8 | – | – | – | – | – | –
2 | H1 (VHH, also called phage-H1 (as tracer)) VHH: EVQLVESGGGLVQPGGSLRLSCAASGFASHLYAIGWFRQAPGKEREKVSCISSNDGSTYYADSVKGRFTISRDTVKDMVYLQMNSLKPEDTAVYYCATDLTVHCFMAEYDWWGQGTQVTVSS | no binding | 3.7 | 11 | 22.2 | 0.0109 | 662000 | 57.7 | 0.00554 | 108000 | 27.8 | 224 | – | – | – | – | – | –
3 | C5^V27 (VHH) VHH: EVQLVESGGGVVQPGGSLKLSCVASGADFSINYIRWYRQAPGKQREFVAGFTATGNTNYADSMKGRFTISRDNTKNAVYLQIDSLKPEDTAVYYCYMLDKWGQGTQVTVSS | – | 178 | 3.1 | 83.9 | 0.0278 | 332000 | – | – | – | – | – | 197 | 207 | 0.102 | 493000 | 379 | –
4 | C5-siSOD1m (VHH, chain 1 pos 125: Gln of the LQR Q-tag carrying the transglutaminase-installed azido linker clicked to the 3' end of the sense strand of the chemically modified siSOD1m duplex (SEQ ID NOs 465/466, no 5'VP), written Q, Member of the group m173; siRNA without 5'VP, so not the same as m166) VHH: EVQLVESGGGVVQPGGSLKLSCVASGTDFSINFIRWYRQAPGKQREFVAGFTATGNTNYADSMKGRFTISRDNTKNAVYLQIDSLKPEDTAVYYCYMLDKWGQGTQVTVSS | – | – | – | – | – | – | – | – | – | – | – | – | – | – | – | – | 161
5 | VHH A9 (C5^V9) (VHH) VHH: EVQLVESGGGVVQPGGSLKLSCVASGTDFSINFIRWYRQAPGKQREFVAGFTATGNTNYADSMKGRFTISRDNTKNAVYLQIDSLKPEDTAVYYCYMLDAWGQGTQVTVSS | – | 4.6 | 3.4 | – | – | – | – | – | – | – | – | 47 | 40.8 | 0.0197 | 524000 | 40.5 | –
6 | VHH A2 (C5^V2) (VHH) VHH: EVQLVESGGGVVQPGGSLKLSCVASGTAFSINFIRWYRQAPGKQREFVAGFTATGNTNYADSMKGRFTISRDNTKNAVYLQIDSLKPEDTAVYYCYMLDKWGQGTQVTVSS | – | 5.7 | 3.2 | – | – | – | – | – | – | – | – | 136 | 109 | 0.0579 | 583000 | 108 | –
7 | VHH A4 (C5^V4) (VHH) VHH: EVQLVESGGGVVQPGGSLKLSCVASGTDFSINFIRWYRQAPGKQREFVAGFTATGATNYADSMKGRFTISRDNTKNAVYLQIDSLKPEDTAVYYCYMLDKWGQGTQVTVSS | – | 3.4 | 3.1 | – | – | – | – | – | – | – | – | 179 | 89.7 | 0.0532 | 652000 | 91.8 | –
8 | C5^V29 (VHH) VHH: EVQLVESGGGVVQPGGSLKLSCVASGADFSINFIRWYRQAPGKQREFVAGFTATGHTNYADSMKGRFTISRDNTKNAVYLQIDSLKPEDTAVYYCYMLDKWGQGTQVTVSS | – | 66 | 2.9 | – | – | – | 0.846 | 0.000982 | 1.17e+06 | – | – | 207 | 143 | 0.0675 | 472000 | 240 | –
9 | VHH A15 (C5^V15) (VHH) VHH: EVQLVESGGGVVQPGGSLKLSCVASGTDFSINFIRWYRQAPGKQREFVAGFTATGNTNYADSMKGRFTISRDNTKNAVYLQIDSLKPEDTAVYYCFMLDKWGQGTQVTVSS | – | 10 | 3.7 | – | – | – | 0.252 | 0.000176 | 700000 | – | – | 207 | 70.6 | 0.0563 | 797000 | 61.1 | –
10 | VHH A3 (C5^V3) (VHH) VHH: EVQLVESGGGVVQPGGSLKLSCVASGTDFSINFIRWYRQAPGKQREFVAGFTAAGNTNYADSMKGRFTISRDNTKNAVYLQIDSLKPEDTAVYYCYMLDKWGQGTQVTVSS | – | 7 | – | – | – | – | – | – | – | – | – | 138 | 83.5 | 0.0467 | 647000 | 98.8 | –
11 | VHH A11 (C5^V11) (VHH) VHH: EVQLVESGGGVVQPGGSLKLSCVASGTDFSINYIRWYRQAPGKQREFVAGFTATGNTNYADSMKGRFTISRDNTKNAVYLQIDSLKPEDTAVYYCYMLDKWGQGTQVTVSS | – | 20 | 3.4 | – | – | – | 0.395 | 0.000311 | 790000 | – | – | 197 | 61.3 | 0.0218 | 355000 | 74.7 | –
12 | B8^V3 (VHH) VHH: EVQLVESGGGVVQPGGSLRLSCAASGEIFSINFMRWYREAPGKQREWVAGFTRDGSTNYPDSAKGRFTISRDNAKNTVYLQIDSLKPEDTAVYYCYMLDTWGQGTQVTVSS | – | 19 | 36 | – | – | – | 0.505 | 3.38e-05 | 66900 | – | – | 52 | 193 | 0.0343 | 178000 | 206 | –
13 | B8-siSOD1m (VHH, conjugated to the siSOD1m siRNA duplex through a linker; site and tag not given for this conjugate ; VHH conjugated through a C-terminal tag and a stable click linker to the 3' end of the sense strand of the siSOD1m siRNA duplex (SEQ ID NO 465/466). The letters cannot carry this., Member of the group m173; not shown: C-terminal tag/linker that carries the siRNA) VHH: EVQLVESGGGVVQPGGSLRLSCAASGEIFSINFMRWYRQAPGKQREWVAGFTRDGSTNYPDSAKGRFTISRDNAKNTVYLQIDSLKPEDTAVYYCYMLDTWGQGTQVTVSS | – | – | – | – | – | – | – | – | – | – | – | – | – | – | – | – | 48.8
14 | B8h1-siSOD1m (VHH, chain 1 pos 125: Gln of the LQR Q-tag carrying the transglutaminase-installed azido linker clicked to the 3' end of the sense strand of the chemically modified siSOD1m duplex (SEQ ID NOs 465/466), written Q, Member of the group m173) VHH: EVQLVESGGGVVQPGGSLRLSCAASGEIFSINFMRWYRQAPGKGLEWVAGFTRDGSTNYPDSVKGRFTISRDNAKNTVYLQMNSLRPEDTAVYYCYMLDTWGQGTQVTVSS | – | – | – | – | – | – | – | – | – | – | – | – | – | – | – | – | 76.1

— patent publication US20230414780A1 (VECT HORUS, published 2023)
